We go through 41 sequences from the nanobody polyreactivity screen of Harvey et al. (2022).

This data set is described as follows: yeast display, Sf9 membrane polyspecificity reagent, FACS + sequencing; frameworks hold sequencing errors. A digest of the protocol: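 Nanobodies came from a synthetic yeast display library in Saccharomyces cerevisiae BJ5465, induced with galactose for 36–48 hours and stained for 1 hour at 4 °C with 10% biotinylated, detergent-solubilized Sf9 membrane reagent. Cells were enriched on streptavidin microbeads and then FACS-sorted, with low and high (top ~1%) gates set on anti-HA fluorescence for expression and streptavidin fluorescence for reagent binding. Each polyreactivity label reflects the gate a clone came from. Genes were amplified by colony PCR, sequenced by MiSeq 2 × 250 and filtered by CDR length.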
“QVQLVESVGGLVQAGGSLRLSCAAYGRIFAWYAMGWYIQAPGKERELVAVITSSDGSTHYADSVKGRFTISRDNAKNTVYLQMNSLKPEDTAVYYCNADSQRPRRSSTYWGQGTQVTVSS”: the “polyreactivity (PSR sort gate)” value was “low polyreactivity”.

As to “QVQLVESGGGLVQAGGSLRLSCAASGRTFYPNAMGWYRQAPGKERELVAAITWRSGSTYYADSVKGRFTISRDNAKNTVYLPMNSLKPEDTAVYYCNADSDYPYYPGKFDYWGQGTQVTVSS”, the “polyreactivity (PSR sort gate)” value is “low polyreactivity”.

On to “QVQLVESGGGLVQAGGSLRLSCAASGRISRGYAMGWYRQAPGKERELVAAIDSDGDTNYADSVKGRFTISRDNAKNTVYLQMNSLKPEDTAVYYCNKDGAYKTAYKRWTLYDYWGQGTQVTVSS”, for which the “polyreactivity (PSR sort gate)” value is “low polyreactivity”.

For the sequence “QVQLVESGGGLVQGGGSLRLSCAASGFIFDGNAMGWSRQAPGKEREFVASNSGSGDSTYYADSVKGRFTISRDNAKNTVYLQMNSLKPEDTAVYYCAYEGTPWASGNDYWGQGTQVTVSS”, the “polyreactivity (PSR sort gate)” value is “low polyreactivity”.

Regarding “QVQLVESAGGLVQAGGSLRLSCAASGFIFFGNAMGWYRQAPGKERALVAVITWSGGSTYADSVKGRFTISRDNAKNPVYLQMNSLKPEDTAVYYSAADQQTWWQYSLINEYDYWGQGTQVTVTS”, the “polyreactivity (PSR sort gate)” value was “low polyreactivity”.

Turning to “QVQLVESGGGLVQAGGSLRLSCAASGLTFPYYAMGWYRQAPGKERELVAAISNSGGSTYYADSVKGRFTISRDNAKNTVYLQMNIVKPEDTAVYYCAAYNSYSDYGYWGHGTQVTVSS”, the “polyreactivity (PSR sort gate)” value is “high polyreactivity”.

Turning to “QVQLVESGGGLFQAGGSHRLSCAASGSTFRVYAMGWYRHAPGKERELVADISRSVTRTYYADSVKGRFTISRDNSKNTFYLQMNSLIPEETAVYYCAAVSYYRRWQTAYYSWGQGTQVTVSS”, the “polyreactivity (PSR sort gate)” value is reported as “high polyreactivity”.

Regarding “QVQLVESGGGLVQGGSLRLSCAASGFTFPIYVMGWSRHAPGKEMELVASISSVGSTNYADSVKGRFTISRDNSKNTVYLQMNSLKPEDTAVYYCNADDPNSYGGFDYWGQGTQVTVSS”, the “polyreactivity (PSR sort gate)” value is “low polyreactivity”.

In the case of “QVQLVESGGGLVQAGGSLRLSCAASGSIFYSNAMGWSRPAPGKEWELVAGITWTGGSTYYADSVKGRFTISRDNAKNTVYLQMNSLKPEYTEVYYCADRVYYRTVLGGYYYWGQGTQVTVSS”, the “polyreactivity (PSR sort gate)” value was “low polyreactivity”.

Regarding “QVQLVESGGGLVQAGGSLRLSCAASGIIFGSYAIGWYRQAPGKERELVAGISRRGDSTYYADSVKGRFTISRDNAKNTVYLQMNSLKPEDTAVYYCAARWFRRSTYLYYYWGQGTQVTVSS”, the “polyreactivity (PSR sort gate)” value is given as “high polyreactivity”.

“QVQLQESGGGQVQAGGTITLGYDMGWYRQAPGKEREFVAGIDTGAITYYADSVKGRFTNSRDNAKNTVYLQMNSLKPEDTAVYYCAAIQTHTYAHSYWGQGTQVTVSS”: the “polyreactivity (PSR sort gate)” value was “high polyreactivity”.

On to “QVQLVESGGGLDQAGGSLPLSCAASGRILQGYAMGWYRQAPGKEREMVASIRTGGTTNYADSVKGRFTISRDNAKNTVYLQMNSLKPEDTAVYYCNRGYDSYYGRYYYWGQGTQVTVSS”, for which the “polyreactivity (PSR sort gate)” value is “high polyreactivity”.

In the case of “QVQLVESGGGIVQAGGSLRLNSAASGITINGNAMGWYRQEPGKERQLVAAISRSSSRTYYADSVKGRFTISRDNAKNTVYLQKNSLKQEDTAVYYCAALSLNVDAPSYGYWGQGTQVTVSS”, the “polyreactivity (PSR sort gate)” value is listed as “high polyreactivity”.

On to “QVQLVESGGGLVQAGGSLRLSCAASGRTFGFNVMGWYRQAPGKEREFVAAITRSGGSTYYADSVKGRFTISRDNAKNTVYLQMNSLKPEDTAVYYCAAYKFSARYYYWGQGTQVTVSS”, for which the “polyreactivity (PSR sort gate)” value is “high polyreactivity”.

Consider “QVQLQESGGGPVLAGCSLRLSCAASGTIFVRLDMGWYRQAPGKEREFVATIGSGSSTYYADSVKGSFTISRDNVKNTVYLQMNSLKQEDTAVYYCAVSAAEQSRHYYWDQGTQVTVSS”, for which the “polyreactivity (PSR sort gate)” value is “low polyreactivity”.

On to “QVQLVESGGGLVQAGGSLRLSCAASGFTFVDNAMGWYRQAPGKERELVAVIDFNDGTTYYADSVKGRFTISRDNAKNSVYLQMNSLKPEDTEVYYCNVDSSLILWVEYDYWGQGTQVTVSS”, for which the “polyreactivity (PSR sort gate)” value was “low polyreactivity”.

Turning to “QDQLVDSGGGLVQAGGSLRLSCGASGSTFRKYAMGWYRQAPGQEREFVAAITWSTGTTYYADSVKGRFTISRDNAKNTVYLQMNSLKREDTAVYYCAADSQPPHDLYESIEHESWGLGTQVTVSS”, the “polyreactivity (PSR sort gate)” value is reported as “low polyreactivity”.

Take “QVQLVESGGGLVQAGGSLRLSCAASGRTFTHNTMGWYRQAPGKERELVAAISRSGASTYYADSVKGRFTISRDNAKNTVYLQMNSLKPEDTAVYYCNAYSRPHFGYVVGTKSRHGYWGQGTQVTVSS”: the “polyreactivity (PSR sort gate)” value is reported as “high polyreactivity”.

Regarding “QVQLEDSGGGLVQAGGSLRLSCAASGFIFGLNAMGWNRQAPGKERELVAAIRSASSTNYADSVKGRFTISRDNAKNTVYLQMNSLKPEDTAVYYCAAEYVTYQHGFWGYDYWGQGTQVTVSS”, the “polyreactivity (PSR sort gate)” value is on record as “low polyreactivity”.

For “QVQLVESGGGLVQAGGSLRLSCAASGRTFAKYAMGWYRQAPGKERELVAAITSGGRTNYADSVKGRFTISRDNAKNTVYLQMNSLKPEDTAVYYCAARRYVVGYFQSKMDYWGQGTQVTVSS”, the “polyreactivity (PSR sort gate)” value is “high polyreactivity”.

For the sequence “QVQLVESGGGLVQAGGSLRLSCAASGRTFFWNAMGWYRQAPGKERELVATISRSGGSTYYADSVKGRFTISRDNAKNTVYLQMNSLKPEDTAVYYCAAQYVRRSRKYDYWGQGTQVTVSS”, the “polyreactivity (PSR sort gate)” value is given as “high polyreactivity”.

With “QVQLVESGGGLVQAGGSLRLSCAASGYTFEDNAMGWYRQAPGKERELVAAIDWSGDSTYYADSVKGRFTISRDNAKNTVYLQMNSLKPEDTAVYYCSADYTTWTDMDYWGQGTQVTVSS”, the “polyreactivity (PSR sort gate)” value was “low polyreactivity”.

As for “QVQLVESGGGLVQAGGSLRLSCAASGRILTYYVMGWYRQAPGKERELVAAITDSGGITYADSVKGRFTISRDNAKNTVYLQMNSLKPEDTAVYYCAAVRFFLYYFDFSAYDYWGQGTQVTVSS”, the “polyreactivity (PSR sort gate)” value is given as “low polyreactivity”.

On to “QVQLVESGGGLVQAGGSLRLSCAASGNTLGYNAMGWYRKAPGKERELVATIRGSGGITYYADSVKGRFTISRDNAKNTVYLQMNSLKPEDTAVDYCAKVYKYRVKGDHWGQGTQVTVSS”, for which the “polyreactivity (PSR sort gate)” value is given as “low polyreactivity”.

Take “QVQLVESGGGLVQAGGSLRLSCAASGSIFYRNAMGWYRQAPGKERELVAAISRSGGSTYYADSVKGRFTISRDNAKNTVYLQMNSLKPEDTAVYYCAKARPLGGTPSNGFDYWGQGTQVTVSS”: the “polyreactivity (PSR sort gate)” value is reported as “high polyreactivity”.

Take “QVQLVESGGGLVQAGGSLRLSCAASGFTCYIYAMGWYRQAPGKERELVAGITSGGTNYADSVKGRFTISRDNAKNTVYLQINSLKPEDTAVYYCATDYYDDVTIGYDYWGQGTQVTFSS”: the “polyreactivity (PSR sort gate)” value was “low polyreactivity”.

With “QVQLVESGGGLVQAGGSLRISCAASGSTFDENAMGWYRQAPGKERELVAVISDSGGSTYYADSVKGRFTISRDNAKNTVYLQMNSLKPEDTAVYYCAKDVPPVYPTSSYDYWGQGTQVTVSS”, the “polyreactivity (PSR sort gate)” value is “low polyreactivity”.

For the sequence “QVQLVESGGGLVQAGGSLRLSCAASGFTIRSYVMGWYRQAPGKERELVAAIRRSGGSTYYADSVKGRFTNSRDNAKNTVYLQMNSLKPEDTAVYYCNAPHHRYDWGQGTQVTVSS”, the “polyreactivity (PSR sort gate)” value is recorded as “high polyreactivity”.

On to “QVQLVESGGGLVQAGGSLRLSCAASGRIFVSYAMGWYRQAPGKERELVAAINWNGDRTYYADSVKGRFTISRDNAKNTVYLQMNSLKPEDSAVYYCNTDSILLPYDYWGQGTQVTVSS”, for which the “polyreactivity (PSR sort gate)” value is recorded as “low polyreactivity”.

For the sequence “QDQLVESGGGLVQAGGSLSLSCAASGRTFTVYAMGWYRQAPGKERELVAAISGSSGSTDYADSVKGRFTISRDNAKNTVYLQMNSLKPEDTAVYYCAKASSATRYVQLRQDYDYWGQGTQVTVSS”, the “polyreactivity (PSR sort gate)” value is recorded as “low polyreactivity”.

For “QVQLVESGGGLVQAGGSLRLSCAASGSTFQFYAMGWYRQAPGKEREFVAGIRSSGGTYYADSVKGRFTISRDNAKNTVYLQMNSLKPEDTAVYYCAAVSSYSPYRRTYYYWGQGTQVTVSS”, the “polyreactivity (PSR sort gate)” value is recorded as “high polyreactivity”.

On to “QDQLVESGGGLVQAGGSLRLSCAASGSIFGKYTMGWYRQAPGKERELVAAISRSGSSTYYADSVKGRFTISRDNAKNTVYLQMNSLKPEDTAVYYCAAKFYYGVTSKFESWGQGTQVTVSS”, for which the “polyreactivity (PSR sort gate)” value was “high polyreactivity”.

“QLLLQESVGGLVQAGGSLRLSCAASGSIFLFYTMGAYRQAPVKELEFVAGITLGTTTYNADSVKGRFTISRDNVKNTVYLQMNSLKPEDTAVYYCAVAVGHYTEFWYWGQGTQVTMSS”: the “polyreactivity (PSR sort gate)” value is on record as “high polyreactivity”.

“QVQLVESCGGIVQAGVSLRLSCAASGSIFGIYAMGWYRQAPGKERELVAAIDSSGTSTYYADSVKGRFTISRDNEKNTVYLQMNSLKPEDTAVNSSAAYHRISKNNYWGQGTEVTVSS”: the “polyreactivity (PSR sort gate)” value is given as “low polyreactivity”.

Turning to “QVQLVESGGGLVQAGGSLRLSCAASGSIFERNAMGWYRQAPGKERELVAAISWSSARTYYADSVKGRFTISRDNAKNTVYLQMNSLKPEDTAVYYCAARVWNEGVRYDYWGQGTQVTVSS”, the “polyreactivity (PSR sort gate)” value was “high polyreactivity”.

As for “QVQLLETGAGLVHAGGSLRLSCAAYGFIFRDYAMGCYRQAPGKERELVAAIYYSGGSTYYADSVKGRFTISRDNAKNTVYLQLNSLKPEDTAVYYCNAVNPYYAPTDRRVGYDYWGQGTQVTVSS”, the “polyreactivity (PSR sort gate)” value is “high polyreactivity”.

“QVQLVESGGGLVQAGGSLRLSCAASGRIFGPYAMGWYRQAPGKERELVAAISGRGSSTYYADSVKGRFTISRDNAKNTVYLQMNSLKPEDTAVYYCAKYPTYSYDYWGQGTQVTVSS”: the “polyreactivity (PSR sort gate)” value is “high polyreactivity”.

For “QVQLVESGGGLVQAGGSLRLSCAASGITFNSYVMGWYRQAPGKERELVAAIRWSGGRTYYADSVKGRFTISRDNAKNTVYLQMNSLKPEDTAVYYCNRVTRSHVDYWGQGTQVTVSS”, the “polyreactivity (PSR sort gate)” value is given as “high polyreactivity”.

Turning to “QVQLVESGGGLVQAGGSLRLSCAASGRNFLYNAMGWYRQAPGKERELVAAISGGSTNYADSVKGRFTISRDNAKNTVYLQMHSLKPEDTAVYYCAARYLRRYNWGQGTQVSVSS”, the “polyreactivity (PSR sort gate)” value is “high polyreactivity”.

“QVQLVESGGGLVQAGGSLRLSCAASGSIFRVYGMGWYRQAPGKERELVAAITWSGGSTYYADSVKGRFTISRDNAKNTVYLQMNSLKPEDTAVYYCNADKFRRYGYWGQGTQVTVSS”: the “polyreactivity (PSR sort gate)” value was “high polyreactivity”.

Turning to “QVQLVESGGGLVQAGGSLRLSWAASGHTFHGYDMGWYRQEPGKERDLVAAITSTGGSTHYSDSVKGRFTISRDNAKNTVYLQMNSLKPEDTAVFFCANRSYGLTRAYSAGNFWGQGTQVTVSS”, the “polyreactivity (PSR sort gate)” value is “low polyreactivity”.
